In patent US20160194391A1 (AstraZeneca / MedImmune, published 2016):
Like-named read-outs stand apart in the source and are kept apart here. Blank lines part the entries; values can stand above or below the binder they belong to.

What was measured:
[1] = biological target: T1, Primate IL-6 (Macaca mulatta, UniProt P51494); test: cell-based or functional assay
T1 sequence (cytokine, looked up): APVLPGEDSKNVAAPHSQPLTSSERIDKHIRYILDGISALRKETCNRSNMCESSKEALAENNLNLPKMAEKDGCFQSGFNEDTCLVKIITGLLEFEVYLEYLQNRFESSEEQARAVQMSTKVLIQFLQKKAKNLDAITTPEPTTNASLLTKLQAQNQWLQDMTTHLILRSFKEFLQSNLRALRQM

[2] = biological target: T2, human IL-6 (human, UniProt P05231 30-212); test: SPR (SensiQ Pioneer), mAb captured on protein G, IL-6 as analyte (3×FLAG-IL-6 or IL-6 CYT-213, 1-100 nM), 25 C, 1:1 model
T2 construct: Soluble IL-6 of the mAb SPR (analyte was 3×FLAG-IL-6 or IL-6 CYT-213); also called recombinant human IL-6 (Prospec-Tany CYT-213, CYT-274)
Procedure: Equilibrium constants for rabbit human chimeric mAbs were determined by binding the mAb to the protein G coated chip followed by binding of each analyte (IL-6 or IL-23) to its respective mAb. In order to minimize mass transfer effects, the surface densities of the mAbs for each analyte were adjusted so that as analyte binding approached saturation its corresponding RU fell between 200 and 300. […] For each binding and dissociation cycle the chip surface was regenerated with 15 uL of 20 mM NaOH (5671-02, Mallinckrodt Baker, Philliphsburg, N.J.). The assay temperature was maintained at 25° C. with an analyte flow rate of 50 μL/min and included a 2 minute association phase and 10-30 minute dissociation phase. The on/off rates (kₐ/kd) and dissociation constants (KD) were determined using the format described above along with pseudo-first-order 1:1 interaction model software (Qdat, ICx Nomadics, Stillwater, Okla.).

[3] = biological target: T2, human IL-6; test: cell-based or functional assay
[4] = biological target: T3, primate IL-23 (p40:p19 fusion, 6×HIS) (primate); test: cell-based or functional assay
T3 chain: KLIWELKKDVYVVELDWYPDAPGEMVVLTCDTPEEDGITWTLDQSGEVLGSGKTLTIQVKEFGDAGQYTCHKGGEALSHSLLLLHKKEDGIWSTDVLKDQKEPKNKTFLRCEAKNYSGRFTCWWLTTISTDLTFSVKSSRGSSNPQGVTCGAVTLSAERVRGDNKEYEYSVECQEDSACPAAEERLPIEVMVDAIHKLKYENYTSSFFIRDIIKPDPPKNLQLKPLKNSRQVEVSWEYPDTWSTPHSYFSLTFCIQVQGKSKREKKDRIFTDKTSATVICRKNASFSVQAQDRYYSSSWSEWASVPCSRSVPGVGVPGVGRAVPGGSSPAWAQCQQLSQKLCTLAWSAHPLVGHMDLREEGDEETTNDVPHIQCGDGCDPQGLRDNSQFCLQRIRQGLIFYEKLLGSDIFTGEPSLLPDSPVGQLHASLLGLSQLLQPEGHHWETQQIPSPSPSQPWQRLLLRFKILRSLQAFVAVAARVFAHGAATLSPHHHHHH

[5] = biological target: T4, human IL-12 (human, UniProt P29459 23-219; P29460 23-328); test: ELISA, human IL-12 coated on the plate; antibody concentration not given [Binding to Human IL-12]
T4 construct: Bioassay used Prospec-Tany Cyt-362
T4 sequence (looked up) 1: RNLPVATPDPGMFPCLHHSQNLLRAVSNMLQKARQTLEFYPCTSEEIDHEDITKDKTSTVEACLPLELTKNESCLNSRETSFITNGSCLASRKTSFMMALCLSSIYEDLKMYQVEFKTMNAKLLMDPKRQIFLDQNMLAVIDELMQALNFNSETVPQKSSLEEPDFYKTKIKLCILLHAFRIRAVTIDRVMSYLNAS
T4 sequence (looked up) 2: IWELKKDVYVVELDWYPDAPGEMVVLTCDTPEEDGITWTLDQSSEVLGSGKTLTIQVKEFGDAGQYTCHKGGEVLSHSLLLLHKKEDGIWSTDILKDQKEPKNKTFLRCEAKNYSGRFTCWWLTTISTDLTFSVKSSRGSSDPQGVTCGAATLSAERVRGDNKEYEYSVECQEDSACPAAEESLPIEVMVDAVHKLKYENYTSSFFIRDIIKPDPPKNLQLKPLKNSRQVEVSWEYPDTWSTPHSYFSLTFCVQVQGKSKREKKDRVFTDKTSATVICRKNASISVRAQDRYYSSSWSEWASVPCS

[6] = biological target: T5, human IL-12 p40 subunit (human, UniProt P29460 23-328); test: ELISA, human IL-12 p40 subunit coated on the plate; antibody concentration not given [Binding to human IL-12 p40]
T5 construct: Coated on ELISA plates
T5 sequence (looked up): T4 sequence (looked up) 2

[7] = biological target: T2, human IL-6; test: cell-based or functional assay; remark: listed apart in the source
[8] = biological target: T4, human IL-12; test: ELISA, human IL-12 coated on the plate; 13A8 is the anti IL-6 negative control [Binding to Human IL-12]
[9] = biological target: T6, monkey IL-12 (macaque) (macaque, UniProt P48091 23-219; P48095 23-328); test: ELISA, monkey (macaque) IL-12 coated on the plate; 13A8 is the anti IL-6 negative control [Binding to Monkey IL-12]
T6 construct: also called macaque IL-12
T6 sequence (looked up) 1: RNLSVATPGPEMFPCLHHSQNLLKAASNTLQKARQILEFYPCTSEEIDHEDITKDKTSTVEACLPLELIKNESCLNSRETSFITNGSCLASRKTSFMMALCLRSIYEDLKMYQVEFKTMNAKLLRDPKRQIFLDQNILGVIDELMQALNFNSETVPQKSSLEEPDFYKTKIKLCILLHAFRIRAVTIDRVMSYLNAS
T6 sequence (looked up) 2: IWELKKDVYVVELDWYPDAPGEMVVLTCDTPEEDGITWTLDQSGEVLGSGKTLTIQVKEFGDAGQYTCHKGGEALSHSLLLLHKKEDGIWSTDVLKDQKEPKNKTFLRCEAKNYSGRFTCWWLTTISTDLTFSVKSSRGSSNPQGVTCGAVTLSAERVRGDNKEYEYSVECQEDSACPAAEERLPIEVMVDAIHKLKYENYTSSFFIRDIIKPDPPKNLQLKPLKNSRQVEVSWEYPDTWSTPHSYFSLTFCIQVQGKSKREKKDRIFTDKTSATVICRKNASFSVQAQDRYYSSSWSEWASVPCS

[10] = biological target: T5, human IL-12 p40 subunit; test: ELISA, human IL-12 p40 subunit coated on the plate; 13A8 is the anti IL-6 negative control [Binding to human IL-12 p40]
[11] = biological target: T1, Primate IL-6; test: cell-based or functional assay; remark: listed apart in the source

IC50 (read off the curve) (B9 proliferation, OD570-600) [1]: ~10 ng/mL | Kd [2]: 0.058 nM | koff [2]: 4.75e-05 s⁻¹ | kon [2]: 816000 M⁻¹ s⁻¹ | EC50, inhibition of IL-6 induced B9 cell proliferation [3]: 0.109 ng/mL
B1: 9H4 chimeric mAb (antibody, V domains shown)
VH: QSLEESGGRLVTPGTPLTLTCTASGFSLSSYDMSWVRQAPGKGLEWIGYIYTDTSTYYANWAKGRFSISKTSTTVDLKMTSLTAEDTATYFCAKGSTDYAFDTRLDLWGPGTLVTVSS
VL: YDMTQTPASVEVAMGGTVTIKCQASQSISNELSWYQQKPGQPPKLLIYRTSTLASGVSSRFKGSGSGTEYTLTISGVECADAATYYCQQGYNSNDVDNVFGGGTEVVVVR
notes: Rabbit/human chimeric IgG (human IgG1, kappa); HEK293; also called 9H4 clone

IC50 (read off the curve) (IL-17 from mouse splenocytes, OD450) [4]: ~0.2 ng/mL | binding result [5]: binds | binding result [6]: binds
B2: 31A12 chimeric mAb (antibody, V domains shown)
VH: QSLEESGGRLVTPGTPLTLTCTASGFSLSSYWMTWVRQAPGGGLEWIGTIATSSTYYASWAKGRFTISRTSTTVDLKMTSLTTEDTATYFCARGLTTDYDLDLWGPGTLVTVSS
VL: LVMTQTPASVSAAVGGTVTINCQASEDIESYLAWYQQKPGQRPKLLIYSASTLTSGVPSRFKGSGSGKQFTLTISGVQREDAATYYCLGADDTTTVFGGGTKVVVVR
notes: Rabbit/human chimeric IgG (human IgG1, kappa); HEK293; also called 31A12 mAb

EC50, inhibition of IL-6 induced B9 cell proliferation [7]: 0.034 ng/mL | Kd [2]: 0.218 nM | koff [2]: 0.000138 s⁻¹ | kon [2]: 633000 M⁻¹ s⁻¹ | binding result [8]: no binding | binding result [9]: no binding | binding result [10]: no binding | IC50 (read off the curve) (B9 proliferation, OD570-600) [11]: ~0.4 ng/mL
B3: 13A8 chimeric mAb (antibody, V domains shown)
VH: QSVEESGGRLVTPGTPLTLTCTVSGIDLSSYDMSWVRQAPGKGLEWIGYIYTDSSTWYANWAKGRFTISKTSSTTVDLKMTSLTTEDTATYFCAKGSTDYAFDTRLDLWGPGTLVTVSS
VL: NIVMTQTPSPVSGAVGGTVTINCQASQSISNELSWYQQKPGQPPRLLIYRASTLTSGVSSRFKGSGAGTQFTLTISGVECADAATYYCQQGYNSNDVDNVFGGGTKVVVVR
notes: HEK293; also called 13A8 clone
